The values below come from patent US20190134153A1, “IMMUNOMODULATORY EFFECT OF INHALED KINASE INHIBITOR PEPTIDES IN LUNG” (MOERAE MATRIX, INC., priority 2017, published 2019).

Holding throughout (experiment): Kinase Profiling Assay
Format in all cases: biochemical
Common to all, as to settings: 100 μM

Assay [1] concerns the target AMPKα1(h) (Homo sapiens, UniProt Q13131).
For assay [2], the target named is BRK(h) (Homo sapiens, UniProt Q13882).
Assay [3] deals with CLK3(h) (Homo sapiens, UniProt P49761).
For assay [4], the target named is EGFR(h) (Homo sapiens, UniProt P00533).
Assay [5] concerns the target T1, EphA1(h) (Homo sapiens, UniProt P21709).
T1 sequence (P21709 26-976): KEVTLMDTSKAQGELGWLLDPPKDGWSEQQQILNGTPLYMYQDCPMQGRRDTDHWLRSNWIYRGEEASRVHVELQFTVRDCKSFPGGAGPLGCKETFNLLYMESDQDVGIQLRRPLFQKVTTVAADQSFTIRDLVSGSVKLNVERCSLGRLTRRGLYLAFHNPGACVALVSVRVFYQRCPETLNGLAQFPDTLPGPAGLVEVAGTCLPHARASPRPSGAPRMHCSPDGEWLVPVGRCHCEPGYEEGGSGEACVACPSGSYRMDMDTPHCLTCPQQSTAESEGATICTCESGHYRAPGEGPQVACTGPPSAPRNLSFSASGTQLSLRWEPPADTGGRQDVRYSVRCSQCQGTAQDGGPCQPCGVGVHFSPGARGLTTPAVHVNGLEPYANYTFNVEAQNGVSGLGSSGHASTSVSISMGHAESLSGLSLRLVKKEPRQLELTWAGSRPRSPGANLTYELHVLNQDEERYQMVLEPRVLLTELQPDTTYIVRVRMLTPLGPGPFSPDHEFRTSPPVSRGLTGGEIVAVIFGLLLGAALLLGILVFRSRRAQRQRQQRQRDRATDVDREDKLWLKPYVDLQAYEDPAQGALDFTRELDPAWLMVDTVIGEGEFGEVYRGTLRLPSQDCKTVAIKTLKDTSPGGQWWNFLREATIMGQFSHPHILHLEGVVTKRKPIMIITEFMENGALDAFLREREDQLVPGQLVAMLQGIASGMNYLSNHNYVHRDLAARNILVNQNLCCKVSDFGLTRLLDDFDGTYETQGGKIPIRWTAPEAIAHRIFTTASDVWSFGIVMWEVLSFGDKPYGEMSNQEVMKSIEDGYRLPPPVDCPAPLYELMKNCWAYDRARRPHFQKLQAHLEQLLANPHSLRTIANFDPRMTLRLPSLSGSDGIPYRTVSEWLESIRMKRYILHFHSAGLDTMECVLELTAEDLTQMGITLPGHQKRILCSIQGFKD

Assay [6] addresses Hck(h) activated (Homo sapiens, UniProt P08631).
The target in assay [7] is IR(h), activated (Homo sapiens, UniProt P06213).
The target in assay [8] is T2, LKB1(h) (Homo sapiens, UniProt Q15831).
T2 sequence (Q15831 1-433): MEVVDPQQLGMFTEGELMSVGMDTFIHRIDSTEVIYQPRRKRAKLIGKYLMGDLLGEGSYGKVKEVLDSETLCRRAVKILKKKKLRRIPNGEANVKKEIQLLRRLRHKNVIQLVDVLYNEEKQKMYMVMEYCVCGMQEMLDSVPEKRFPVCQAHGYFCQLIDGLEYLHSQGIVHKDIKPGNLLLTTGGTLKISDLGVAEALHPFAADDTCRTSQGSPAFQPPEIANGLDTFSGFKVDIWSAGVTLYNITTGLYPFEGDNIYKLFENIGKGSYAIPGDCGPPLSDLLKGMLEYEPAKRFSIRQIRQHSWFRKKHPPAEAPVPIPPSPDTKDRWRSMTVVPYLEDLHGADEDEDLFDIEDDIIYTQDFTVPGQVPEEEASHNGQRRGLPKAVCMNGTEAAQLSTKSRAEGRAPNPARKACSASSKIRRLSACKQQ
T2 sequence (Q7RTN6 1-431 partner): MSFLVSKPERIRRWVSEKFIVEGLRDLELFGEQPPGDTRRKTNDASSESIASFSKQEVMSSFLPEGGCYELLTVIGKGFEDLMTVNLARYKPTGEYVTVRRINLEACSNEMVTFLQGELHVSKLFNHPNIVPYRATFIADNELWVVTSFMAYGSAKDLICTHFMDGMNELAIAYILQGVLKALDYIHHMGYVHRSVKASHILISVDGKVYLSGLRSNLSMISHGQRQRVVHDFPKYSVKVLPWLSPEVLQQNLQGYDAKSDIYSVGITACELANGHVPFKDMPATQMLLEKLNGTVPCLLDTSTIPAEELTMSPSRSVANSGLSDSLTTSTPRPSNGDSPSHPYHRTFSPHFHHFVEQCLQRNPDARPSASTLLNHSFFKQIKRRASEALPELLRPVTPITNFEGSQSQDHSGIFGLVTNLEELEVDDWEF
T2 sequence (Q9Y376 1-341 partner): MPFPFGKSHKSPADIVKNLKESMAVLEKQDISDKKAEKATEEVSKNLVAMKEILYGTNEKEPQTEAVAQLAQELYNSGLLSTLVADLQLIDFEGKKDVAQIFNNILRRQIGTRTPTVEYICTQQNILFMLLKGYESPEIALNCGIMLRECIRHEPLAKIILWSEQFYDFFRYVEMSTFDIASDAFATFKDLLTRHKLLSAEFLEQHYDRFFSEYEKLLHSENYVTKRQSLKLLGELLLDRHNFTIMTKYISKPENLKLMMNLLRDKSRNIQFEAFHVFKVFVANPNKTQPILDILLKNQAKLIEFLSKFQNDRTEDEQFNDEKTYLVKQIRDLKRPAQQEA

The target of assay [9] is Met(M1268T)(h) (Homo sapiens, UniProt P08581, M1250T).
Assay [10] has as its target Met(Y1248D)(h) (Homo sapiens, UniProt P08581, Y1230D).
For assay [11], the target named is NEK6(h) (Homo sapiens, UniProt Q9HC98).
The target of assay [12] is PKCα(h) (Homo sapiens, UniProt P17252).
Assay [13] has as its target Src(T341M)(h) (Homo sapiens, UniProt P12931, T341M).
Assay [14] has as its target EphA2(h) (Homo sapiens, UniProt P29317).

Sequence of CLK3(h) (P49761 whole entry): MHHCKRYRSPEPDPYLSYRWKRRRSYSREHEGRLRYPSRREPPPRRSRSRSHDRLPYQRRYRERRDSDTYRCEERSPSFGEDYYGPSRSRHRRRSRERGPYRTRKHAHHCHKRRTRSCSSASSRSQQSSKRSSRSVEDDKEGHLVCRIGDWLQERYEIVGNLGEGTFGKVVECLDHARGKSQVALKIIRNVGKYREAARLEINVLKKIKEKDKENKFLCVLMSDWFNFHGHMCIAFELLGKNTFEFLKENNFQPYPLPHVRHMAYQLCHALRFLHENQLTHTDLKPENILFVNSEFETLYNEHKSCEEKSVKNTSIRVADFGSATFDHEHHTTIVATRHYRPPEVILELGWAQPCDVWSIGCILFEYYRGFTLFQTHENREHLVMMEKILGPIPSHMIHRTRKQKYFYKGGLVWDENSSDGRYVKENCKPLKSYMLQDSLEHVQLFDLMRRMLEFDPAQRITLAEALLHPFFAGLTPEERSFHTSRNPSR
Sequence of AMPKα1(h) (Q13131 whole entry): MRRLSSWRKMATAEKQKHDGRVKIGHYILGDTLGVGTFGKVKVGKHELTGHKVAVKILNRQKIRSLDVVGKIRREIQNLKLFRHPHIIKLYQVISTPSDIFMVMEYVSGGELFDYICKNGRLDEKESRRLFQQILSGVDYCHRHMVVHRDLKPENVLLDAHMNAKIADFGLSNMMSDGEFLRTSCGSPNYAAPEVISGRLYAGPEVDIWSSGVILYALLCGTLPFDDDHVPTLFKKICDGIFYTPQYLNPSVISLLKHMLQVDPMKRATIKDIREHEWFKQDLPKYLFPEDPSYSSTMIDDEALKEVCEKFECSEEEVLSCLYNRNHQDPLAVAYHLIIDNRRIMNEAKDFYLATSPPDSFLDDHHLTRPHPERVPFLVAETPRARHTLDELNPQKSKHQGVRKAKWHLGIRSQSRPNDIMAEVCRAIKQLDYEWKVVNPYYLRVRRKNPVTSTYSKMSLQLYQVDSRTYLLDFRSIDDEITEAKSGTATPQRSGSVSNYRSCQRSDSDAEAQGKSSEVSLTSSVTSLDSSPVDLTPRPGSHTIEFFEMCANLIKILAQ
Sequence of AMPKα1(h) (Q9Y478 whole entry partner): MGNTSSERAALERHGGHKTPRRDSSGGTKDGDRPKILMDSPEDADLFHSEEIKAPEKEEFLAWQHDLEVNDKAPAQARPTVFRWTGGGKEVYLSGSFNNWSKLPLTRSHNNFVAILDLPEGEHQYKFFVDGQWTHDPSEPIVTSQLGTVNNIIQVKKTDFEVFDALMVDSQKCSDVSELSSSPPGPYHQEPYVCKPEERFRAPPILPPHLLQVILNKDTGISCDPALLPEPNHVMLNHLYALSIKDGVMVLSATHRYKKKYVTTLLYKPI
Sequence of AMPKα1(h) (P54619 whole entry partner): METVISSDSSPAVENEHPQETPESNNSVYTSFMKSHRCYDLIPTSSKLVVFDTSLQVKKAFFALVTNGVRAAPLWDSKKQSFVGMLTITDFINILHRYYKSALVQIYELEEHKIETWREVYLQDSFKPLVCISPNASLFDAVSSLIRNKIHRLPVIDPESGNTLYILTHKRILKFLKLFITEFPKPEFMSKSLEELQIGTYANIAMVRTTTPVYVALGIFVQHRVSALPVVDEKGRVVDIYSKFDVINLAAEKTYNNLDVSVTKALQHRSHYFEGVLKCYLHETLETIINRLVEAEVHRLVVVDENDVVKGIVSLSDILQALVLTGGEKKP
Sequence of Hck(h) activated (P08631 whole entry): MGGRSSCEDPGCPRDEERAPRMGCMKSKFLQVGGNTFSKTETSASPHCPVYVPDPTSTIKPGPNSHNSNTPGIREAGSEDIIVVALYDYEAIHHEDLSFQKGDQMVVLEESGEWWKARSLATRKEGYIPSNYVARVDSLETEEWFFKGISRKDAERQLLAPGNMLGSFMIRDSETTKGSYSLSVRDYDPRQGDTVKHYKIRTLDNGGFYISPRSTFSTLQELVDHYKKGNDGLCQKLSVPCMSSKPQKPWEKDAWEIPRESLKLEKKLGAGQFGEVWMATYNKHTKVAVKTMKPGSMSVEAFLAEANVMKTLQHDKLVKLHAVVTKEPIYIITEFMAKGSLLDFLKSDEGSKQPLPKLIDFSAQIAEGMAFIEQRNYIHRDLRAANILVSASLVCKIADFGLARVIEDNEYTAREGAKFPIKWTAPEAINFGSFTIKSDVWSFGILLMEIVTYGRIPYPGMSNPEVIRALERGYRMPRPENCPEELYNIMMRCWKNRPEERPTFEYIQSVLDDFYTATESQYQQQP
Sequence of NEK6(h) (Q9HC98 whole entry): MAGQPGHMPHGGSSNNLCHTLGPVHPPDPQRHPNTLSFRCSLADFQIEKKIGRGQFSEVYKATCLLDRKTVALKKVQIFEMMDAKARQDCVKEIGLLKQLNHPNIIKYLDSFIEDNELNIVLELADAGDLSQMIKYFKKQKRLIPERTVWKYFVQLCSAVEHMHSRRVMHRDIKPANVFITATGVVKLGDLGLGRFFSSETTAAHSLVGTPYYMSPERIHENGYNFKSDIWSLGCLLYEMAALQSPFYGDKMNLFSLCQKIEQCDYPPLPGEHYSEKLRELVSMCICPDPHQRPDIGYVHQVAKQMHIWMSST
Sequence of BRK(h) (Q13882 whole entry): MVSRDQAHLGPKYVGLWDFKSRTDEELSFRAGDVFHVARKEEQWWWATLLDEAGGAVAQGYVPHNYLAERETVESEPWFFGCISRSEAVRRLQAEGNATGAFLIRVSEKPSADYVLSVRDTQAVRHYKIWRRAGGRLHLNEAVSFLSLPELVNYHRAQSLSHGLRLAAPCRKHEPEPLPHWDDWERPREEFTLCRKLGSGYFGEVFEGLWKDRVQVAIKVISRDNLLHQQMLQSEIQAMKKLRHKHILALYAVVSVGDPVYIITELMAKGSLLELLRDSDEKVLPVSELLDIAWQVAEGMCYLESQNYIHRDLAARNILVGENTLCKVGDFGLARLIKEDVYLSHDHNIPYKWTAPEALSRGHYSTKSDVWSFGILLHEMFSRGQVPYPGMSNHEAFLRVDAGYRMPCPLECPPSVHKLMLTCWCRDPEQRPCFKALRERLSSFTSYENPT

In the case of HRRIKAWLKKIKALARQLGVAA [MMI-0500], the “% activity” value in [1] is 35%; in assay [2] it was 41%; in [3] it was 76%; in assay [4], −1%; in assay [5] it was 40%; in assay [6], 67%. In addition, the “% activity” value in assay [7] turned out to be 90%; in assay [8] it was 51%; in assay [9] it was 239%; in [10], 218%; in assay [11], 49%; in assay [12] it was 3%. Moreover, in assay [13], the “% activity” value worked out at 59%.

On to YARAAARQARAKALNRQLGVA [MMI-0200], for which the “% activity” value in [1] is 108%; in [2], 127%; in [3], 76%; in assay [4], 83%; in assay [14], 95%; in assay [6] it was 100%. The “% activity” value turned out to be 99% in [8]; 143% in assay [9]; 118% in assay [10]; 98% in [11]; 100% in [12]; 56% in [13].

In the case of KAFAKLAARLYRKALARQLGVAA [MMI-0400], the “% activity” value in assay [1] was found to be 87%; in assay [2], 18%; in assay [3], 84%; in assay [4], 16%; in assay [5], 61%; in assay [14], 17%. In addition, the “% activity” value in assay [6] is listed as 81%; in assay [7] it was 59%; in assay [8], 89%; in assay [9], 265%; in assay [10], 31%; in assay [11], 85%. Moreover, the figures for the “% activity” value in [12] and in assay [13] were 86% and 76%, respectively.

With FAKLAARLYRKALARQLGVAA [MMI-0300], the “% activity” value amounted to 71% in [1]; 35% in [2]; 61% in assay [3]; 21% in assay [4]; 73% in assay [5]; 31% in [14]. Also, the “% activity” value in assay [6] is 82%; in [7] it was 79%; in [8], 101%; in [9], 255%; in assay [11], 82%; in assay [12], 89%. In addition, the “% activity” value in [13] turned out to be 70%.
